# B1: DDX5-001 (peptide)
# peptide: YLLPAIVHI
# B2: VLLSEQGDVKL (SEQ ID NO: 263) (peptide)
# peptide: VLLSEQGDVKL
# B3: SLLDLPLSL (SEQ ID NO: 245) (peptide)
# peptide: SLLDLPLSL
# B4: YAIGLVMRL (SEQ ID NO: 266) (peptide)
# peptide: YAIGLVMRL
# B5: TVSDVLNSV (SEQ ID NO: 246) (peptide)
# peptide: TVSDVLNSV
# B6: SLLHFTENL (SEQ ID NO: 255) (peptide)
# peptide: SLLHFTENL
# B7: ALAELIDNSL (SEQ ID NO: 253) (peptide)
# peptide: ALAELIDNSL
# B8: KLFPQETLFL (SEQ ID NO: 264) (peptide)
# peptide: KLFPQETLFL
# B9: RLMEICESL (SEQ ID NO: 252) (peptide)
# peptide: RLMEICESL
# B10: ALSVLRLAL (SEQ ID NO: 251) (peptide)
# peptide: ALSVLRLAL
# B11: SLGEEQFSV (SEQ ID NO: 256) (peptide)
# peptide: SLGEEQFSV
# B12: FMVDKAIYL (SEQ ID NO: 262) (peptide)
# peptide: FMVDKAIYL
# B13: STIAILNSV (SEQ ID NO: 236) (peptide)
# peptide: STIAILNSV
# B14: SLAPATPEV (SEQ ID NO: 250) (peptide)
# peptide: SLAPATPEV
# B15: GLYTDPCGV (SEQ ID NO: 257) (peptide)
# peptide: GLYTDPCGV
# B16: GLCERLVSL (SEQ ID NO: 249) (peptide)
# peptide: GLCERLVSL
# B17: KMNESTRSV (SEQ ID NO: 239) (peptide)
# peptide: KMNESTRSV
# B18: YLDRFLAGV (SEQ ID NO: 248) (peptide)
# peptide: YLDRFLAGV
# B19: YMGEEKLIASV (SEQ ID NO: 240) (peptide)
# peptide: YMGEEKLIASV
# B20: ALYEGYATV (SEQ ID NO: 247) (peptide)
# peptide: ALYEGYATV
# B21: YLLEKNRVV (SEQ ID NO: 244) (peptide)
# peptide: YLLEKNRVV
# B22: ALAPHLDDA (SEQ ID NO: 237) (peptide)
# peptide: ALAPHLDDA
# B23: ILLEKILSL (SEQ ID NO: 260) (peptide)
# peptide: ILLEKILSL
# B24: KLQGKLPEL (SEQ ID NO: 254) (peptide)
# peptide: KLQGKLPEL
# B25: LLSPHNPAL (SEQ ID NO: 234) (peptide)
# peptide: LLSPHNPAL
# B26: GLYERPTAA (SEQ ID NO: 238) (peptide)
# peptide: GLYERPTAA
# B27: KTIQQLETV (SEQ ID NO: 241) (peptide)
# peptide: KTIQQLETV
# B28: ILLPRIIEA (SEQ ID NO: 259) (peptide)
# peptide: ILLPRIIEA
# B29: FMADDIFSV (SEQ ID NO: 243) (peptide)
# peptide: FMADDIFSV
# B30: WLYGEDHQI (SEQ ID NO: 242) (peptide)
# peptide: WLYGEDHQI
# B31: LLSERFINV (SEQ ID NO: 258) (peptide)
# peptide: LLSERFINV
# B32: QLQDRVYAL (SEQ ID NO: 261) (peptide)
# peptide: QLQDRVYAL
# B33: KIIDFLSAL (SEQ ID NO: 235) (peptide)
# peptide: KIIDFLSAL
# B34: NTCPYVHNI (SEQ ID NO: 265) (peptide)
# peptide: NTCPYVHNI
# Target: HLA-A*02:01 (human)
# Experiment: pMHC used for negative control stimulation
row,Binder,binding result
1,B1,binds

# Target: HLA-A*02 (human)
# Experiment: UV peptide-exchange ELISA, yield grade
row,Binder,peptide exchange yield
1,B2,20 to 49%
2,B3,≥ 75%
3,B4,50 to 75%
4,B5,50 to 75%
5,B6,50 to 75%
6,B7,50 to 75%
7,B8,50 to 75%
8,B9,50 to 75%
9,B10,50 to 75%
10,B11,20 to 49%
11,B12,50 to 75%
12,B13,50 to 75%
13,B14,50 to 75%
14,B15,≥ 75%
15,B16,≥ 75%
16,B17,20 to 49%
17,B18,≥ 75%

row,Binder,peptide exchange yield
1,B19,50 to 75%
2,B20,50 to 75%
3,B21,20 to 49%
4,B22,50 to 75%
5,B23,50 to 75%
6,B24,20 to 49%
7,B25,50 to 75%
8,B26,20 to 49%
9,B27,20 to 49%
10,B28,50 to 75%
11,B29,50 to 75%
12,B30,20 to 49%
13,B31,≥ 75%
14,B32,50 to 75%
15,B33,50 to 75%
16,B34,50 to 75%

# Reference: patent US20170165339A1 (IMMATICS BIOTECHNOLOGIES, published 2017)
